{"source": "paper doi:10.1101/2025.06.12.659244", "about": "(bioRxiv, 2025)", "proteins": {"B1": {"name": "St3 Cas1 (C-terminal StrepII-Tag), Cas1 homodimer of the St3 Cas1-Cas2 integrase (enzyme, S. thermophilus DGCC 7710)", "chain": "MAGWRTVVVNIHSKLSYKNNHLIFRNSYKTEMIHLSEIDILLLETTDIVLTTMLVKRLVDENILVIFCDDKRLPTAFLTPYYARHDSSLQIARQIAWKENVKCEVWTAIIAQKILNQSYYLGECSFFEKSQSIMELYHGLERFDPSNREGHSARIYFNTLFGNDFTRESDNDINAALDYGYTLLLSMFAREVVVCGCMTQIGLKHANQFNQFNLASDIMEPFRPIIDRIVYQNRHNNFVKIKKELFSIFSETYLYNGKEMYLSNIVSDYTKKVIKALNQLGEEIPEFRI"}, "B2": {"name": "St3 Cas1 (C-terminal HisTag), Cas1 homodimer of the St3 Cas1-Cas2 integrase (enzyme, S. thermophilus DGCC 7710)", "chain": "B1 chain"}, "B3": {"name": "St3Csn2^Y212R+I213R+M215R (Interface 1 mutant of St3Csn2) (natural protein, S. thermophilus DGCC 7710, UniProt G3ECR4 1-219, looked up)", "chain": "MKINFSLLDEPMEVNLGTVLVIEDVSVFAQLVKEFYQYDEQSNLTIFDSKIRSIRSSELLLITDILGYDINTSQVLKLLHTDIVSQLNDKPEVRSEIDSLVSLITDIIMAECIENELDIEYDEITLLELIKALGVRIETKSCTVFEKIFEILQIFKYLVKKRILVFVNSLSYFSKDEIYQILEYTKLSQADVLFLEPRQIEGIQQFILDKDRRLRPYNN"}, "B4": {"name": "St3Csn2 (accessory protein Csn2 of the S. thermophilus DGCC 7710 CRISPR3 system), homotetrameric ring (natural protein)", "chain": "B3 chain with R212Y, R213I, R215M"}, "B5": {"name": "St3 Cas2 (untagged), Cas2 homodimer of the St3 Cas1-Cas2 integrase (natural protein, S. thermophilus DGCC 7710)", "chain": "MSYRYMRMILMFDMPTDTAEERKAYRKFRKFLLSEGFIMHQFSVYSKLLLNHTANTAMVGRLKANNPKKGNITILTVTEKQFARMIYLYGDKNTSIANSEERLVFLGDNYCDED"}}, "key": {"cryo-EM structure [1]": {"target": "the molecule itself", "experiment": "cryo-EM structure"}, "cryo-EM structure [2]": {"target": "the molecule itself", "experiment": "cryo-EM structure", "remark": "listed apart in the source"}, "SEC-MALS": {"target": "the molecule itself", "experiment": "SEC-MALS"}}, "note": "Residue numbers refer to the chain shown, from its start. Names may count otherwise."}
{"protein": "B1", "values": [{"measurement": "stoichiometry N", "setting": "cryo-EM structure [1]", "result": 2}]}
{"protein": "B2", "values": [{"measurement": "stoichiometry N", "setting": "cryo-EM structure [2]", "result": 2}]}
{"protein": "B3", "values": [{"measurement": "stoichiometry N", "setting": "cryo-EM structure [2]", "result": 4}]}
{"protein": "B4", "values": [{"measurement": "stoichiometry N", "setting": "SEC-MALS", "result": 4}]}
{"protein": "B5", "values": [{"measurement": "stoichiometry N", "setting": "cryo-EM structure [1]", "result": 2}]}
